Source: patent US10709769B2, “Use of endostatin peptides for the treatment of fibrosis” (University of Pittsburgh—Of the Commonwealth System of …, priority 2009, dated 2020)

B1: full-length recombinant human endostatin (protein, UniProt P39060 1572-1754, looked up)
Endostatin: HSHRDFQPVLHLVALNSPLSGGMRGIRGADFQCFQQARAVGLAGTFRAFLSSRLQDLYSIVRRADRAAVPIVNLKDELLFPSWEALFSGSEGPLKPGARIFSFDGKDVLRHPTWPQKSVWHGSDPNGRRLTESYCETWRTEAPSATGQASSLLGGRLLGQSAASCHHAYIVLCIENSFMTASK
modifications: Endostatin
notes: full-length recombinant human endostatin purchased from Sigma-Aldrich
B2: ENDSTAR: recombinant human endostatin purified from E. coli containing an additional nine-amino acid sequence, his-tagged; approved for non-small-cell lung cancer in China (protein, UniProt P39060 1572-1754, looked up)
Endostatin: B1 Endostatin
modifications: Endostatin additional nine-residue His tag
notes: approved for non-small-cell lung cancer in China

Key:
[1] = system: human primary lung fibroblasts; assay: FN and Col1α1 western blot in TGF-β-treated primary lung fibroblasts; format: cell-based; settings: normal human lung fibroblasts; TGF-β 10 ng/ml 24 h, then 5 μg/ml rE or peptide 48 h; vs TGF-β alone
Method: (§1) Human primary lung and skin fibroblasts were cultured. The explanted lungs of normal organ donors, patients with SSc or IPF, and clinically involved skin of SSc patients, a morphea patient and healthy donors were used for primary fibroblast culture. Approximately 2-cm pieces of peripheral lung and skin were minced and fibroblasts were cultured in Dulbecco's modified Eagle's medium (DMEM; Mediatech, Herndon, Va.) supplemented with 10% FBS, penicillin, streptomycin, and anti-mycotic agent, as previously described (Feghali et al., Arthritis Rheum 1999; 42:1451-7). All the cells were used between passages 3-6.
Cellular lysates were obtained from cultured fibroblasts as previously described (Pilewski et al., Am J Pathol 2005; 166:399-407). Briefly, 2.0×10^5 primary fibroblasts were cultured in 35-mm wells in 0.5% FBS-containing medium supplemented with 10 ng/ml of human recombinant TGF-β or PBS as vehicle control for 24 h, following which 5 μg/ml of human rE, endostatin peptides (E1-E4), or DMSO (vehicle) was added for 48 h. In some experiments, endostatin peptides were used without TGF-β stimulation. Cellular lysates were analyzed by western blot. Signals were detected following incubation with horseradish peroxidase-conjugated secondary antibody and chemiluminescence (Perkin Elmer Life Sciences, Inc., Boston, Mass.). The intensity of individual bands with expected molecular sizes was semi-quantitatively analyzed using the image/J® software available at on the internet (/rsb.info.nih.gov/ij/index.html), and normalized to individual GAPDH intensity.
To evaluate whether endostatin modulates production of ECM components in fibroblasts, FN and Col1α1 expression was examined in normal human lung fibroblasts by western blot analysis. Cells were treated with 5 µg/ml rE for 48 h with or without pre-stimulation with human TGF-β for 24 h. […] To define the functional domain of endostatin that mediates its inhibitory effect, four different peptides were synthesized corresponding to different regions of endostatin (Table 1).

mouse skin = assay: TGF-β-induced dermal fibrosis in vivo in mouse skin; settings: mice, intradermal, 10 μg/ml with TGF-β 10 ng/ml, one week post-injection
Method: FIG. 9. E4 reverses TGF β-induced dermal fibrosis even if administered 3 days following TGF-β.
CB57BL6/J male mice were purchased from The Jackson Laboratory (Bar Harbor, Me.). Human rE (10 μg/ml) or Endostatin peptides (10 μg/ml) in combination with TGF-β (10 ng/ml), or TGF-β alone were injected intradermally on the back of mice in a total volume of 100 μl 1×PBS. Mice were injected in two different skin sites and sacrificed one week post-injection. Skin surrounding the injection site was harvested and fixed in 10% formalin prior to embedding in paraffin.
(§2) Six μm sections of paraffin-embedded human and mouse skin tissues were stained with hematoxylin and eosin (H&E). In some experiments, sections were stained with Masson trichrome which identifies collagens. Images were taken on a Nikon Eclipse 800 microscope. The thickness of the dermis was measured in 6 random fields of each section using the image/J® software. Data are shown in arbitrary units.
E4, a peptide representing the carboxy terminus of human endostatin, can attenuate fibrosis triggered by multiple fibrogenic factors. The anti-fibrotic effects of E4 can be detected whether administered concomitantly with or following the fibrogenic trigger. The efficacy of E4 was confirmed in […] pre-clinical models of fibrosis: a) bleomycin-induced dermal fibrosis in vivo in mouse skin, b) TGF-β induced dermal fibrosis in mouse skin, and c) bleomycin-induced pulmonary fibrosis. E4 peptide or a control peptide (E1; representing the amino terminal region of endostatin) were administered at the same time as TGF-β or bleomycin or 3-4 days following TGF-β or bleomycin. Mice were sacrificed one and two weeks after TGF-β-initiation of dermal fibrosis, and two and three weeks after bleomycin-induced pulmonary fibrosis. Two different modes of administration of the E4 peptide were also tested. It was confirmed that intraperitoneal and intratracheal administration was effective. The amount of E4 that was administered ws 10 μg/ml in a total volume of 100 μl for skin and IP injections and 50 μl for IT administration.

human skin explants = assay: Ex vivo human skin fibrosis organ culture, dermal thickness; format: cell-based; settings: for dermal thickness, baseline effect: injected alone without TGF-β, rE 1, 5, 10 μg/ml, peptides 10 μg/ml
Method: Human abdominal skin was obtained from corrective plastic surgery. As previously described (Yasuoka et al., The Open Rheumatol J 2008; 2:17-22), subcutaneous fat tissue was removed uniformly and skin tissue was cut into 1.5 cm×1.5 cm sections. The following were injected intradermally in a total volume of 100 μl 1×PBS: rE alone (1-10 μg/ml), endostatin peptides alone (10 μg/ml), rE or endostatin peptides (1-20 μg/ml) in combination with TGF-β (10 ng/ml), and TGF-β alone (10 ng/ml). In some experiments, human skin was first injected with TGF-β for 48 h followed by recombinant endostain (rE) administration in the same injection site as TGF-β. Explants containing complete epidermal and dermal layers were cultured in an air liquid interface with the epidermal and keratin layers side up and exposed to air. The culture medium was replaced every other day. After 1 or 2 weeks, skin tissue corresponding to an area with 8-mm diameter centered around the injection site was harvested using disposable 8-mm Acu Punch® (Acuderm inc., Lauderdale, Fla.). Skin tissue was fixed in 10% formalin prior to embedding in paraffin.
as §2

[2] = system: human primary skin fibroblasts; assay: TGF-β-induced ECM production in primary skin (dermal) fibroblasts, western blot; format: cell-based; settings: dermal fibroblasts from healthy controls, SSc or morphea patients
Method: as §1
Cellular lysates were obtained from cultured fibroblasts as previously described (Pilewski et al., Am J Pathol 2005; 166:399-407). […] Cellular lysates were analyzed by western blot. Signals were detected following incubation with horseradish peroxidase-conjugated secondary antibody and chemiluminescence (Perkin Elmer Life Sciences, Inc., Boston, Mass.). The intensity of individual bands with expected molecular sizes was semi-quantitatively analyzed using the image/J® software available at on the internet (/rsb.info.nih.gov/ij/index.html), and normalized to individual GAPDH intensity. […]

[3] = system: Human umbilical vein endothelial cells (HUVECs); assay: Tubular formation assay in Matrigel; format: cell-based; settings: 50 nM, 24 hours
Method: The ability of endostatin peptide to inhibit angiogenesis was examined in tubular formation assay using Matrigel® culture. Human umbilical vein endothelial cells (HUVECs) were maintained in endothelial cell basal medium-2 (EBM-2; Clonetics, San Diego, Calif.) supplemented with EBM-2 MV SingleQuots®. HUVECs (5×10^4) were cultured in duplicate on 24-well Matrigel® plates (BD Biosciences, San Diego, Calif.) alone, or in the presence of rE or E4 peptide (50 nM) in EBM-2 at 37° C. DMSO was used as vehicle control. After 24 hours, images were captured using a […] microscope. The degree of cord formation was quantified by measuring the area occupied by tubes in 6 random fields per well. Three independent experiments were performed.

[4] = cited from earlier work

| Molecule | FN and Col1α1 levels/production [1] | TGF-β-induced dermal fibrosis (dermal thickness) (mouse skin) | dermal thickness, baseline effect (human skin explants) | further results |
| --- | --- | --- | --- | --- |
| H-^1HSHRDFQPVLHLVALNSPLSGGMRGIRGADFQCFQQARAVGLAGT^45-OH (H-HSHRDFQPVLHLVALNSPLSGGMRGIRGADFQCFQQARAVGLAGT-OH; UniProt P39060 1572-1616, looked up, fragment) [E1, human endostatin fragment, amino acids 1-45; amino terminal control peptide] | had no effect | did not alter |  |  |
| H-^71IVNLKDELLFPSWEALFSGSEGPLKPGARIFSFDGKDVLRHPTWP^115-OH (H-IVNLKDELLFPSWEALFSGSEGPLKPGARIFSFDGKDVLRHPTWP-OH; UniProt P39060 1642-1686, looked up, fragment) [E2, human endostatin fragment, amino acids 71-115] |  | significantly reduced |  |  |
| H-^133SYCETWRTEAPSATGQASSLLGGRLLGQSAASCHHAYIVLCIENSFMT^180-OH (H-SYCETWRTEAPSATGQASSLLGGRLLGQSAASCHHAYIVLCIENSFMT-OH; cysteine pairing not given here; UniProt P39060 1704-1751, looked up, fragment) [E3, human endostatin fragment, amino acids 133-180] |  | prevented | tendency towards reduction | development of fibrosis as measured by dermal thickness (human skin explants; peptides 10 μg/ml with TGF-β 10 ng/ml, vs TGF-β alone): significantly abolished |
| B1 | dramatically reduced |  | tendency towards reduction | TGF-β-induced ECM production (FN, Col1α1) [2]: reduced; TGF-β-induced dermal fibrosis, delayed treatment (human skin explants; injected 2 days after TGF-β administration): significantly ameliorated; dermal thickness (human skin explants; rE 1, 5, 10 μg/ml injected simultaneously with TGF-β 10 ng/ml, one week, dose-dependent): significantly reduced; inhibition of tubular structure formation [3]: significant |
| B2 |  |  |  | half-life [4]: short |
